What was measured:
[1] = molecular target: v5-tagged full-length GIGYF2 (1–1,320) (human); test: proximity ligation
[2] = molecular target: v5-tagged full-length GIGYF2 (1–1,320) (human); test: proximity ligation; cells cotransfected with v5-GIGYF2, HA-4EHP and FLAG-empty vector; fixed 24 h after transfection; PLA with v5 and HA antibodies

v5-tagged full-length GIGYF2 (1–1,320) (human), sequence (Q6Y7W6 2-1299): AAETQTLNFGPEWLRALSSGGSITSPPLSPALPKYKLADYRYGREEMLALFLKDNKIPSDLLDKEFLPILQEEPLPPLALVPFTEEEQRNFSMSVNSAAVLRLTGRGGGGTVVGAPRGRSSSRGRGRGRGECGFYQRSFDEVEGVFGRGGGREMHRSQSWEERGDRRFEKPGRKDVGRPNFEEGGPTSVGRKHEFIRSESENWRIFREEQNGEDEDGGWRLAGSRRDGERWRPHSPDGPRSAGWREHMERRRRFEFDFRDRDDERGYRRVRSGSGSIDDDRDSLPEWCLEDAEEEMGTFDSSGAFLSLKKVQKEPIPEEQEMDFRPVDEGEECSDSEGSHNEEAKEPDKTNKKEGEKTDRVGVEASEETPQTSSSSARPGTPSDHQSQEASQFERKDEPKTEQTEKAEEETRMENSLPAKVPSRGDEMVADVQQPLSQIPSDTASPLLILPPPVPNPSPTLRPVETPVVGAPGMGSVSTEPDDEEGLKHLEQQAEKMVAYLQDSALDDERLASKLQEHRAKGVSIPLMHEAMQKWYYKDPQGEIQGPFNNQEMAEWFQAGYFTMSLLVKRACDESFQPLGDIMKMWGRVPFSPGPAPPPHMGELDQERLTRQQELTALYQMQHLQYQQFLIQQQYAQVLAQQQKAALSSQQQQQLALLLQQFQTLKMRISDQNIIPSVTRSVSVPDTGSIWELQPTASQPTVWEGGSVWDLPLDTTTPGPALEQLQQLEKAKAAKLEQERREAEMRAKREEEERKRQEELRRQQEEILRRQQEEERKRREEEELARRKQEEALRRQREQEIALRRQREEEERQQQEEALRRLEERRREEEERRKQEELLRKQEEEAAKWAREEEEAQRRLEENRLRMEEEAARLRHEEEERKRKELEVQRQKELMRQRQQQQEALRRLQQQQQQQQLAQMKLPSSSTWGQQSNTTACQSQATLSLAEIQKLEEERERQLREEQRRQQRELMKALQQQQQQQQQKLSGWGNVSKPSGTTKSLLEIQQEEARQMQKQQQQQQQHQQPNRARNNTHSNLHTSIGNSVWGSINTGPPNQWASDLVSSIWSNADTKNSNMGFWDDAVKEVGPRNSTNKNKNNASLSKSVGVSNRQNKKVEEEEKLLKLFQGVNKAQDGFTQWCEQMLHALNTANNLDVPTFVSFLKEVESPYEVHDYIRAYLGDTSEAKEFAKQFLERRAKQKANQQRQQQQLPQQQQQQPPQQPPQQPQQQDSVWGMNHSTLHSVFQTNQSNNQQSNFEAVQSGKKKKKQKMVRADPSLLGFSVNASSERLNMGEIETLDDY

## HA-tagged 4EHP (from UniProt O60573 1-245)
[1]
  PLA punctate per cell (punctate per cell): 61
[2]
  PLA punctate per cell (punctate per cell): 19.8
